This note sets out measurements from WO2013015821A1.

In test [1] the target is human transcobalamin receptor (TCblR/CD320), full length, on cells (human) (UniProt Q9NPF0). As to the kind of experiment: TC-[57Co]Cbl on normal and TCblR overexpressing HEK 293 cells, 1 hour at 37°C, surface counts released by trypsin/EDTA.
Test [2] has as its target TCblR with the cytoplasmic tail deleted, membrane-anchored on HEK293 cells (human) (UniProt Q9NPF0). Put plainly: TC-[57Co]Cbl on HEK293 cells expressing TCblR with the cytoplasmic tail deleted, surface counts released by trypsin/EDTA.

UniProt Q9NPF0, sequence (Q9NPF0 36-282 limits assumed): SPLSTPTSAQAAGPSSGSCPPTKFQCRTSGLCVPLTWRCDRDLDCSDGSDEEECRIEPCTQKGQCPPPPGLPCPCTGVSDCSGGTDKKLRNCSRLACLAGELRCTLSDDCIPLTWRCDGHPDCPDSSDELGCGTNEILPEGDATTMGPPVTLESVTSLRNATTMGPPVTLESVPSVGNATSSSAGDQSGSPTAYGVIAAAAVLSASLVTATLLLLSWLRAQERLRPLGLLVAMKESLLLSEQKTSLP

B1: transcobalamin saturated with cobalamin (TC-Cbl) (ligand, human, UniProt P20062 19-427, looked up)
chain: EMCEIPEMDSHLVEKLGQHLLPWMDRLSLEHLNPSIYVGLRLSSLQAGTKEDLYLHSLKLGYQQCLLGSAFSEDDGDCQGKPSMGQLALYLLALRANCEFVRGHKGDRLVSQLKWFLEDEKRAIGHDHKGHPHTSYYQYGLGILALCLHQKRVHDSVVDKLLYAVEPFHQGHHSVDTAAMAGLAFTCLKRSNFNPGRRQRITMAIRTVREEILKAQTPEGHFGNVYSTPLALQFLMTSPMRGAELGTACLKARVALLASLQDGAFQNALMISQLLPVLNHKTYIDLIFPDCLAPRVMLEPAAETIPQTQEIISVTLQVLSLLPPYRQSISVLAGSTVEDVLKKAHELGGFTYETQASLSGPYLTSVMGKAAGEREFWQLLRDPNTPLLQGIADYRPKDGETIELRLVSW
modifications: cobalamin bound non-covalently ([57Co]Cbl in the radio assays)
For B1, the % of the radiolabel on the membrane in test [1] fell in the range of 37 to 43%. Also, the % of the TCblR-bound radiolabel remaining on the cell surface in test [2] stood at 80%.
